Key:
peptide CPNGRGD [1] = target: T1, peptide CPNGRGD (murine, N-terminal Cys coupled to BSA via EMCS); assay: ELISA, BSA-coupled peptide coated at 10 ug/ml
T1 construct: Synthetic peptide, BSA conjugate on the ELISA plate
T1 peptide: CPNGRGD
Text: (§1) Peptides of amino acid sequence of […] (mOPN1) (SEQ ID NO:73), […] (mOPN5) (SEQ ID NO:71), […] (SEQ ID NO:74), CPNGRGD (SEQ ID NO:75), […] (SEQ ID NO: 76) […] (SEQ ID NO: 77), […] (SEQ ID NO:78) and […] (SEQ ID NO:72) which include murine OPN derived partial peptide, a peptide of amino acid sequence […] (SEQ ID NO:79) and […] (SEQ ID NO:80) which include human OPN derived partial peptide, and a peptide of amino acid sequence CGRGDS (SEQ ID NO:81) which include common peptide sequence of human OPN and murine OPN were coupled to BSA (Sigma corporation) via EMCS (Dojin) and used for ELISA.
(§2) A 96 well plate was immobilized with peptides (10 μg/ml) or proteins (5 μg/ml) by cultivating at 37° C. for an hour, blocked with 0.1% BSA/PBS/0.05% NaN₃ solution, and then reacted with various concentrations of antibodies at 37° C. for an hour. Next, the plate was reacted with HRP labeled anti-murine IgG antibody (Jackson ImmunoResearch Laboratories, Inc.) as secondary antibody at 37° C. for 30 minutes, added OPD as chromogen, added 1N H₂SO₄ to stop the reaction, and then detected absorbance at 490 nm.

peptide CGRGDS [2] = target: T2, peptide CGRGDS (human and murine, N-terminal Cys coupled to BSA via EMCS); assay: ELISA, BSA-coupled peptide coated at 10 ug/ml
T2 construct: Synthetic peptide, BSA conjugate on the ELISA plate
T2 peptide: CGRGDS
Text: as §1, §2

peptide CVDVPNGRGDS [3] = target: T3, peptide CVDVPNGRGDS (murine, N-terminal Cys coupled to BSA via EMCS); assay: ELISA, BSA-coupled peptide coated at 10 ug/ml
T3 construct: Synthetic peptide, BSA conjugate on the ELISA plate
T3 peptide: CVDVPNGRGDS
Text: as §1, §2

murine osteopontin = target: T4, murine osteopontin (murine, UniProt P10923 17-294); assay: ELISA, protein coated at 5 ug/ml, HRP anti-murine IgG, A490
T4 construct: mature; Secreted recombinant protein; also called mOPN; murine OPN
T4 sequence (P10923 17-294): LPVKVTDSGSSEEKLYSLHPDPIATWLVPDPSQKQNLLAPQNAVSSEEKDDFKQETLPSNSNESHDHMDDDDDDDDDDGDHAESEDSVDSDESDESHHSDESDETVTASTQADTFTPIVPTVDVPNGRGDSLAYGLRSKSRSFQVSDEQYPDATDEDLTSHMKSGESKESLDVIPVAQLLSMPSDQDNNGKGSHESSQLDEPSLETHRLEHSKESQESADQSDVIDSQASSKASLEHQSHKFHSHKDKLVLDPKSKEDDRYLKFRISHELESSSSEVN
Method: as §2, with “Binding ability of the monoclonal antibodies 33E10 and 35B6 to ECM proteins was detected by ELISA using 96 well plate immobilized with hOPN, mOPN, FN, VN or laminin obtained above. A 96” for “A 96”

human osteopontin = target: T5, human osteopontin (human, UniProt P10451 17-314); assay: as above
T5 construct: mature; Secreted recombinant protein; also called hOPN; human OPN
T5 sequence (P10451 17-314): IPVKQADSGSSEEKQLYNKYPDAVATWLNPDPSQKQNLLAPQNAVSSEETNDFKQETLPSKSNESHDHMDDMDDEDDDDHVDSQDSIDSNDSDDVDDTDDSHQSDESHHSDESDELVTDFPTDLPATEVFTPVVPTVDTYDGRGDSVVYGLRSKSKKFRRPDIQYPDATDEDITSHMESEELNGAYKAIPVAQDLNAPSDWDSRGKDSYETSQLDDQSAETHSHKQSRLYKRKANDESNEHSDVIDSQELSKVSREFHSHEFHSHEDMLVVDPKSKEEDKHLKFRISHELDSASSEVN
Method: as §2, with “Binding ability of the monoclonal antibodies 33E10 and 35B6 to ECM proteins was detected by ELISA using 96 well plate immobilized with hOPN, mOPN, FN, VN or laminin obtained above. A 96” for “A 96”

[4] = target: T6, mOPN5 peptide CVDVPNGRGDSLAYGLR (murine, N-terminal Cys coupled to BSA via EMCS (ELISA of section 6.2)); assay: ELISA, BSA-coupled peptide coated at 10 ug/ml, HRP anti-murine IgG, A490
T6 construct: BSA conjugate in section 6.2; 'antigen peptide solid phase' in the hybridoma screen of section 6.1; also called antigen peptide
T6 peptide: CVDVPNGRGDSLAYGLR

peptide CGRGDSLAYGLR = target: T7, peptide CGRGDSLAYGLR (murine, N-terminal Cys coupled to BSA via EMCS); assay: as above
T7 construct: Synthetic peptide, BSA conjugate on the ELISA plate
T7 peptide: CGRGDSLAYGLR

peptide CGDSLAYGLR = target: T8, peptide CGDSLAYGLR (murine, N-terminal Cys coupled to BSA via EMCS); assay: as above
T8 peptide: CGDSLAYGLR

[5] = target: T9, hOPN5 peptide CVDTYDGRGDSVVYGLRS conjugated to bovine serum albumin (human, N-terminal Cys coupled to BSA (via EMCS in section 6.2)); assay: as above
T9 construct: also called hOPN5-BSA; hOPN-BSA
T9 peptide: CVDTYDGRGDSVVYGLRS

peptide CGDSLAYG = target: T10, peptide CGDSLAYG (murine, N-terminal Cys coupled to BSA via EMCS); assay: as above
T10 construct: Synthetic peptide, BSA conjugate on the ELISA plate
T10 peptide: CGDSLAYG

peptide CSLAYGLR = target: T11, peptide CSLAYGLR (murine, N-terminal Cys coupled to BSA via EMCS); assay: ELISA, BSA-coupled peptide coated at 10 ug/ml
T11 construct: Synthetic peptide, BSA conjugate on the ELISA plate
T11 peptide: CSLAYGLR
Text: as §1, §2

peptide CSVVYGLR = target: T12, peptide CSVVYGLR (human, N-terminal Cys coupled to BSA via EMCS); assay: ELISA, BSA-coupled peptide coated at 10 ug/ml
T12 construct: Synthetic peptide, BSA conjugate on the ELISA plate
T12 peptide: CSVVYGLR
Text: as §1, §2

human vitronectin = target: T13, human vitronectin (human, UniProt P04004 20-478); assay: ELISA, protein coated at 5 ug/ml, HRP anti-murine IgG, A490
T13 construct: Bought protein; also called VN
T13 sequence (P04004 20-478 limits assumed): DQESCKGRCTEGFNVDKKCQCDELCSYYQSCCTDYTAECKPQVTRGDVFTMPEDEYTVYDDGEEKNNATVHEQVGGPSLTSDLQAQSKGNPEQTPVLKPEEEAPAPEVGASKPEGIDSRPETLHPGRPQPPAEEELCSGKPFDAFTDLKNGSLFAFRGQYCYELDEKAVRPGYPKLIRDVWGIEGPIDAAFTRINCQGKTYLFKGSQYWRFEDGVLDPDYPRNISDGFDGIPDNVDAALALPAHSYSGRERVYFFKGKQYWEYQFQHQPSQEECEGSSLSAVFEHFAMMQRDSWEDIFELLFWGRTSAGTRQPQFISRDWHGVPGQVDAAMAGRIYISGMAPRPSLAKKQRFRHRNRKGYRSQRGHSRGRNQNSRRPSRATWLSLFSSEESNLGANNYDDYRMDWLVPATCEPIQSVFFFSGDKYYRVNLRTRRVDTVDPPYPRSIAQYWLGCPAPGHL
Method: as §2, with “Binding ability of the monoclonal antibodies 33E10 and 35B6 to ECM proteins was detected by ELISA using 96 well plate immobilized with hOPN, mOPN, FN, VN or laminin obtained above. A 96” for “A 96”

peptide CPNGRGD [6] = target: T1, peptide CPNGRGD; assay: ELISA, BSA-coupled peptide coated at 10 ug/ml, HRP anti-murine IgG, A490
peptide CGRGDS [7] = target: T2, peptide CGRGDS; assay: as above
peptide CVDVPNGRGDS [8] = target: T3, peptide CVDVPNGRGDS; assay: as above
[9] = target: T9, hOPN5 peptide CVDTYDGRGDSVVYGLRS …; assay: ELISA, hOPN5-BSA coated at 1 ug/ml, HRP anti-human gamma chain, A405
Method: The affinity of humanized 35B6 IgG1/κ was compared to that of chimeric 35B6 IgG1/κ by ELISA. As an antigen, synthetic oligopeptide ([…] (SEQ ID NO:79) conjugated to bovine serum albumin (hOPN5-BSA) was used. In a typical experiment, an ELISA plate was coated with 100 μl/well of 1 μg/ml hOPN-BSA in PBS overnight at 4° C., washed with Wash Buffer, and blocked with 300 μl/well of Blocking Buffer for 1 hr at room temperature. After washing with Wash Buffer, 100 μl/well of samples appropriately diluted in ELISA Buffer were applied to the ELISA plate. After incubating the ELISA plate overnight at 4° C. and washing with Wash Buffer, bound antibodies were detected using 100 μl/well of 1/2,000-diluted HRP-conjugated goat anti-human γ chain polyclonal antibody (SouthernBiotech). After incubating for 1 hr at room temperature and washing with Wash Buffer, color development was performed by adding 100 μl/well of ABTS substrate and stopped with 100 μl/well of 2% oxalic acid. Absorbance was read at 405 nm. As shown in FIG. 41A-41B, the binding of humanized 35B6 IgG1/κ to hOPN5-BSA was similar to (FIG. 41A) or indistinguishable from (FIG. 41B) that of chimeric 35B6 IgG1/κ.

B1: mouse anti-RGD monoclonal antibody 35B6 (FERM BP-10441) (antibody, mouse IgG1, V domains shown)
VH: QVQLQQPGTELVKPGASVKLSCKASGYTFTNYWMHWVKQRPGQGLEWIGNINPRNGDSNYNEKFRSKASLTVDKSSSTVYMQLSSLTSEDSAVYYCARGYFDVWGTGTTVTVSS
VL: DIKMTQSPSSMYASLGERVSITCKASQDINSYLSWFQQKSGKSPKTLIYRANRLVDGVPSRFSGSGSGQDFSLTISSLEYEDMGIYYCLQYDEFPFTFGSGTKLEIK
notes: Mouse IgG1 from hybridoma
binding result (peptide CPNGRGD [1]): no binding
binding result (peptide CGRGDS [2]): no binding
binding result (peptide CVDVPNGRGDS [3]): no binding
binding result (murine osteopontin): binds
binding result (human osteopontin): binds
binding result [4]: binds
binding result (peptide CGRGDSLAYGLR): binds
binding result (peptide CGDSLAYGLR): binds
binding result [5]: binds
binding result (peptide CGDSLAYG): binds

B2: mouse anti-RGD monoclonal antibody 33E10 (FERM BP-10440) (antibody, mouse IgG1, V domains shown)
VH: EVKLVESGGGLVQPGGSLSLSCAASGFTFTDYYMIWVRQPPGKALEWLGFIRNKANGYTTEYSASVKGRFTISRDNSQSILYLQMNALRAEDSATYYCARGAYWGQGTLVTVSA
VL: DVLMTQTPLSLPVSLGDQASISCRSSQSIVHSNGNTYLEWYLQKPGQSPKLLIYRVSNRFSGVPDRFSGSGSGTDFTLKISRVEAEDLGVYYCFQGSFVPWTFGGGTKLEIK
notes: Mouse IgG1 from hybridoma, purified on an antigen peptide column
binding result (peptide CSLAYGLR): no binding
binding result (peptide CSVVYGLR): no binding
binding result (murine osteopontin): binds
binding result (human osteopontin): binds
binding result (human vitronectin): binds
binding result (peptide CPNGRGD [6]): binds
binding result [4]: binds
binding result (peptide CGRGDS [7]): binds
binding result [5]: binds
binding result (peptide CVDVPNGRGDS [8]): binds

B3: humanized 35B6 IgG1/kappa antibody (antibody, V domains shown)
VH: QVQLVQSGAEVKKPGASVKVSCKASGYTFTNYWMHWVRQAPGQGLEWIGNINPRNGDSNYNEKFRSKASLTVDKSTSTVYMELSSLRSEDTAVYYCARGYFDVWGQGTTVTVSS
VL: DIQMTQSPSSLSASVGDRVTITCKASQDINSYLSWFQQKPGKAPKTLIYRANRLVDGVPSKFSGSGSGQDFTLTISSLQPEDFATYYCLQYDEFPFTFGQGTKLEIK
notes: Tested as culture supernatant of transiently transfected HEK293 cells; also called Hu35B6
binding result [9]: binds

B4: chimeric 35B6 IgG1/kappa antibody (antibody, V domains shown)
VH: QVQLQQPGTELVKPGASVKLSCKASGYTFTNYWMHWVKQRPGQGLEWIGNINPRNGDSNYNEKFRSKASLTVDKSSSTVYMQLSSLTSEDSAVYYCARGYFDVWGTGTTVTVSS
VL: DIKMTQSPSSMYASLGERVSITCKASQDINSYLSWFQQKSGKSPKTLIYRANRLVDGVPSRFSGSGSGQDFSLTISSLEYEDMGIYYCLQYDEFPFTFGSGTKLEIK
notes: Tested as culture supernatant of transiently transfected HEK293 cells; also called Ch35B6
binding result [9]: binds

— patent publication US20110091386A1 (GENE TECHNO SCIENCE, published 2011)
